According to the Immune Epitope Database (IEDB):

Assays:
HLA-A*02:01 [1] = test: IEDB peptide-MHC binding, cellular MHC/competitive/fluorescence; ≥ and ≤ were set here for values at or beyond the usual limits of such assays
HLA-C*14:02 = test: IEDB peptide-MHC binding, purified MHC/direct/fluorescence; filed as Kd, often an IC50 or EC50 that approximates it; ≥ and ≤ were set here for values at or beyond the usual limits of such assays
HLA-A*03:01 = test: as above
HLA-A*02:19 = test: as above; conditions: source organism: Listeria monocytogenes serotype 4b str. H7858
HLA-A*02:11 = test: as above; conditions: source organism: Listeria monocytogenes serotype 4b str. H7858
HLA-A*29:02 = test: as above; conditions: source organism: Listeria monocytogenes serotype 4b str. H7858
HLA-A*24:03 [2] = test: as above; conditions: source organism: Listeria monocytogenes serotype 4b str. H7858
HLA-A*69:01 = test: as above
HLA-B*51:01 = test: as above; conditions: source organism: Listeria monocytogenes serotype 4b str. H7858
HLA-A*02:01 [3] = test: as above
HLA-C*05:01 = test: as above
HLA-A*26:01 = test: as above
HLA-B*18:01 = test: as above; conditions: source organism: Listeria monocytogenes serotype 4b str. H7858
HLA-B*15:17 = test: as above; conditions: source organism: Listeria monocytogenes serotype 4b str. H7858
HLA-B*15:01 = test: as above
HLA-A*68:02 = test: as above; conditions: source organism: Listeria monocytogenes serotype 4b str. H7858
HLA-B*46:01 = test: as above; conditions: source organism: Listeria monocytogenes serotype 4b str. H7858
HLA-B*57:01 = test: as above; conditions: source organism: Listeria monocytogenes serotype 4b str. H7858
HLA-A*02:16 = test: as above; conditions: source organism: Listeria monocytogenes serotype 4b str. H7858
HLA-B*27:03 = test: as above; conditions: source organism: Listeria monocytogenes serotype 4b str. H7858
HLA-A*02:12 = test: as above; conditions: source organism: Listeria monocytogenes serotype 4b str. H7858
HLA-A*02:03 = test: as above; conditions: source organism: Listeria monocytogenes serotype 4b str. H7858
HLA-A*24:03 [4] = test: IEDB peptide-MHC binding, purified MHC/competitive/fluorescence; filed as Kd, often an IC50 or EC50 that approximates it; ≥ and ≤ were set here for values at or beyond the usual limits of such assays; conditions: source organism: Bacillus cereus G9241
HLA-C*15:02 = test: IEDB peptide-MHC binding, purified MHC/direct/fluorescence; filed as Kd, often an IC50 or EC50 that approximates it; ≥ and ≤ were set here for values at or beyond the usual limits of such assays
HLA-B*58:01 = test: as above
HLA-B*27:05 = test: as above
HLA-B*40:01 = test: as above
HLA-A*01:01 = test: as above
HLA-B*07:02 = test: as above
HLA-B*08:01 = test: as above
HLA-B*44:02 = test: as above
HLA-A*31:01 = test: as above
HLA-B*35:01 = test: as above; conditions: source organism: Giardia lamblia ATCC 50803
HLA-B*73:01 = test: as above
HLA-A*11:01 = test: as above
HLA-A*30:01 = test: as above; conditions: source organism: Brucella melitensis
HLA-C*12:03 = test: as above; conditions: source organism: Giardia lamblia ATCC 50803
[5] = source organism: Listeria monocytogenes serotype 4b str. H7858
[6] = source organism: Burkholderia pseudomallei 1710b
[7] = source organism: Giardia lamblia ATCC 50803
[8] = source organism: Brucella melitensis
[9] = source organism: Brucella abortus

Substance: ALGGGATGV
- IC50 (HLA-A*02:01 [1]; source organism: Mycobacterium tuberculosis): 1.4 µM

Substance: APAAAAQAV
- Kd (HLA-C*14:02; source organism: Mycobacterium tuberculosis C): 3.08 µM

Substance: FRDEAGAIL
- Kd (HLA-A*03:01; [5]): ≥ 20 µM
- Kd (HLA-A*02:19): ≥ 20 µM
- Kd (HLA-A*02:11): ≥ 20 µM
- Kd (HLA-A*29:02): ≥ 20 µM
- Kd (HLA-A*24:03 [2]): ≥ 20 µM
- Kd (HLA-A*69:01; [5]): ≥ 20 µM
- Kd (HLA-B*51:01): ≥ 20 µM
- Kd (HLA-A*02:01 [3]; [5]): ≥ 20 µM
- Kd (HLA-C*05:01; source organism: Listeria monocytogenes FSL R2-503): 2.21 µM
- Kd (HLA-A*26:01; [5]): ≥ 20 µM
- Kd (HLA-B*18:01): ≥ 20 µM
- Kd (HLA-B*15:17): ≥ 20 µM
- Kd (HLA-B*15:01; [5]): ≥ 20 µM
- Kd (HLA-A*68:02): ≥ 20 µM
- Kd (HLA-B*46:01): ≥ 20 µM
- Kd (HLA-B*57:01): ≥ 20 µM
- Kd (HLA-A*02:16): ≥ 20 µM
- Kd (HLA-B*27:03): ≥ 20 µM
- Kd (HLA-A*02:12): ≥ 20 µM
- Kd (HLA-A*02:03): ≥ 20 µM

Substance: KFIILLTSF
- Kd (HLA-C*14:02; source organism: Bacillus cereus G9241): 1.23 µM
- Kd (HLA-A*24:03 [4]): 0.159 µM

Substance: KTADVTVVF
- Kd (HLA-C*05:01; [6]): 0.06 µM
- Kd (HLA-C*15:02; [6]): 0.253 µM

Substance: LGIVCPI
- IC50 (HLA-A*02:01 [1]; source organism: Human papillomavirus 16): 0.7 µM

Substance: RHIAIQVCY
- Kd (HLA-A*03:01; [7]): ≥ 20 µM
- Kd (HLA-B*58:01; [7]): ≥ 20 µM
- Kd (HLA-B*27:05; [7]): 3.36 µM
- Kd (HLA-A*69:01; [7]): ≥ 20 µM
- Kd (HLA-B*40:01; [7]): ≥ 20 µM
- Kd (HLA-A*02:01 [3]; [7]): ≥ 20 µM
- Kd (HLA-A*26:01; [7]): ≥ 20 µM
- Kd (HLA-A*01:01; [7]): ≥ 20 µM
- Kd (HLA-B*07:02; [7]): ≥ 20 µM
- Kd (HLA-B*15:01; [7]): 1.73 µM
- Kd (HLA-B*08:01; [7]): ≥ 20 µM
- Kd (HLA-B*44:02; [7]): ≥ 20 µM
- Kd (HLA-A*31:01; [7]): ≥ 20 µM
- Kd (HLA-B*35:01): 1.19 µM
- Kd (HLA-B*73:01; [7]): ≥ 20 µM
- Kd (HLA-A*11:01; [7]): ≥ 20 µM

Substance: SRIGAWASK
- Kd (HLA-A*03:01; [8]): 5.83 µM
- Kd (HLA-B*58:01; [9]): ≥ 20 µM
- Kd (HLA-B*27:05; [8]): 0.0531 µM
- Kd (HLA-A*69:01; [9]): ≥ 20 µM
- Kd (HLA-A*30:01): 1.27 µM
- Kd (HLA-B*40:01; [9]): ≥ 20 µM
- Kd (HLA-A*02:01 [3]; [9]): ≥ 20 µM
- Kd (HLA-A*26:01; [9]): ≥ 20 µM
- Kd (HLA-A*01:01; [9]): ≥ 20 µM
- Kd (HLA-B*07:02; [9]): ≥ 20 µM
- Kd (HLA-B*15:01; [9]): ≥ 20 µM
- Kd (HLA-B*08:01; [9]): ≥ 20 µM
- Kd (HLA-B*44:02; [9]): ≥ 20 µM
- Kd (HLA-A*31:01; [9]): ≥ 20 µM
- Kd (HLA-B*73:01; source organism: Brucella suis 1330): ≥ 20 µM
- Kd (HLA-A*11:01; [8]): 1.22 µM

Substance: VLDVGDAYFSV
- IC50 (HLA-A*02:01 [1]; source organism: Human immunodeficiency virus 1): 7 µM

Substance: YLYLRPYAL
- Kd (HLA-C*12:03): 0.029 µM
- Kd (HLA-C*14:02; [7]): 0.151 µM
- Kd (HLA-B*08:01; [7]): 0.016 µM
- Kd (HLA-C*15:02; [7]): 3.05 µM
